This is an account of results in the supplement of paper PMC9732359.

The nature of this data set: protein stability index of a GFP-peptide fusion (yeast GPS) (PSI 1-4); higher = more stable; sorted into four equal gates, so the index is relative within each strain. The procedure, abridged: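 Tiled 17-residue peptides from yeast proteins were fused downstream of GFP on a plasmid that also expresses Cherry, and the pooled library was carried in yeast. Mid-log cultures grown in leucine-free medium were sorted into four equal gates by GFP/Cherry fluorescence ratio. Plasmids from each gate were PCR-amplified and Illumina-sequenced, and reads were assigned to strains by barcodes. Each peptide's protein stability index is the sum, over gates, of the gate's read frequency multiplied by its gate number.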

± gives the uncertainty stated by the source.

As for LPLQAQQQLYGGNNNNN [SWI1], the protein stability index (doa10∆) came out at 3.05 ± 0.064, the protein stability index (pdr5∆) was determined as 2.92 ± 0.07, the protein stability index (san1∆) was found to be 2.68 ± 0.068 and the protein stability index (ubr1∆) was determined as 2.56 ± 0.045.

The sequence AHDYNNDQDMFTIVSLV [YML103C/NUP188] displayed a protein stability index (doa10∆) of 2.76 ± 0.21, a protein stability index (pdr5∆) of 3.11 ± 0.16, a protein stability index (san1∆) of 3.23 ± 0.12 and a protein stability index (ubr1∆) of 2.95 ± 0.13.

As to YKKLDIDGKVIQAGKFD [SNF2], the protein stability index by setting is: (doa10∆) 2.94 ± 0.088; (pdr5∆) 3.36 ± 0.08; (san1∆) 3.06 ± 0.044; (ubr1∆) 2.99 ± 0.059.

AIKYRPTSVKLLKTTVP [POP3]: the protein stability index by setting is: (doa10∆) 2.23 ± 0.037; (pdr5∆) 2.3 ± 0.039; (san1∆) 2.31 ± 0.057; (ubr1∆) 2.14 ± 0.033.

As for EAGEVKDDGAFVKFLSK [RPL10], the protein stability index is, setting by setting: (doa10∆) 3.28 ± 0.087; (pdr5∆) 3.22 ± 0.078; (san1∆) 3.35 ± 0.07; (ubr1∆) 3.61 ± 0.065.

In the case of YLHIRDKILQLNDRFQT [PGD1], the protein stability index (doa10∆) came to 2.62 ± 0.056, the protein stability index (pdr5∆) is 2.02 ± 0.064, the protein stability index (san1∆) turned out to be 2.38 ± 0.053 and the protein stability index (ubr1∆) is 2.27 ± 0.038.

For GRILKWLWPLCRGELKA [CDC53], the protein stability index amounted to 1.58 ± 0.095 (doa10∆), 1.64 ± 0.06 (pdr5∆), 1.32 ± 0.11 (san1∆) and 1.13 ± 0.045 (ubr1∆).

Turning to LSETNGLHKFVKGDLLQ [PRE10], the protein stability index runs as follows: (pdr5∆) 3.28 ± 0.23; (ubr1∆) 3.48 ± 0.11.

Consider QKSINHPPDFKRMLLSL [SNF2], for which the protein stability index (doa10∆) is 1.66 ± 0.04, the protein stability index (pdr5∆) stood at 1.42 ± 0.039, the protein stability index (san1∆) turned out to be 1.71 ± 0.062 and the protein stability index (ubr1∆) was determined as 1.38 ± 0.022.

GRGRGRGRPPKARNGLD [SNF2]: the protein stability index was found to be 3.13 ± 0.084 (doa10∆), 3.17 ± 0.075 (pdr5∆), 3.29 ± 0.047 (san1∆) and 3.33 ± 0.057 (ubr1∆).

SSLRKNASGNKRSGVIE [ITC1]: the protein stability index was found to be 2.96 ± 0.22 (doa10∆), 2.22 ± 0.15 (pdr5∆) and 2.06 ± 0.089 (ubr1∆).

Sequence HNGREGSIEEPELNVSL [MCD1] displayed a protein stability index (doa10∆) of 3.31 ± 0.3, a protein stability index (pdr5∆) of 3.5 ± 0.15, a protein stability index (san1∆) of 3.07 ± 0.12 and a protein stability index (ubr1∆) of 3.37 ± 0.071.

KHIKNLEDDSLLSYPIK [RPN12]: the protein stability index runs as follows: (doa10∆) 2.9 ± 0.047; (pdr5∆) 2.44 ± 0.033; (san1∆) 2.56 ± 0.045; (ubr1∆) 2.617 ± 0.026.

For the sequence QNTIDDTEMKMKSLLTE [YIL149C/MLP2], the protein stability index is, setting by setting: (doa10∆) 3.25 ± 0.066; (pdr5∆) 3.39 ± 0.054; (san1∆) 3.17 ± 0.067; (ubr1∆) 3.19 ± 0.05.

Consider RREVQIQLQEFLLSAMT [NSL1], for which the protein stability index reads like this: (doa10∆) 1.42 ± 0.052; (pdr5∆) 1.68 ± 0.11; (san1∆) 1.47 ± 0.12; (ubr1∆) 1.68 ± 0.063.

In the case of NIVMDSKQNGIEQSITK [SSN8], the protein stability index (doa10∆) came to 3.08 ± 0.16, the protein stability index (pdr5∆) was determined as 2.59 ± 0.28, the protein stability index (san1∆) turned out to be 2.61 ± 0.18 and the protein stability index (ubr1∆) amounted to 3.15 ± 0.12.

For the sequence SAEDEENIIQRLQAANS [CDC53], the protein stability index came to 3.15 ± 0.081 (doa10∆), 3.4 ± 0.066 (pdr5∆), 3.15 ± 0.048 (san1∆) and 3.02 ± 0.065 (ubr1∆).

For RLTVSARDAPTKISTLA [QCR2], the protein stability index is, setting by setting: (doa10∆) 3.2 ± 0.096; (pdr5∆) 3.17 ± 0.069; (san1∆) 3.04 ± 0.066; (ubr1∆) 3.19 ± 0.055.

Take MSKVMKPSNGKGSRKSS [SNF12]: the protein stability index was 2.92 ± 0.091 (doa10∆), 3.27 ± 0.11 (pdr5∆), 3.02 ± 0.11 (san1∆) and 3.232 ± 0.029 (ubr1∆).

Regarding FSNKYLELCKLASNNLE [RRI2], the protein stability index by setting is: (doa10∆) 1.95 ± 0.054; (pdr5∆) 2.1 ± 0.039; (san1∆) 2.02 ± 0.068; (ubr1∆) 2.02 ± 0.043.

Turning to CNAQPITRSVMRFNIEI [BRR2], the protein stability index reads like this: (doa10∆) 2.71 ± 0.082; (pdr5∆) 2.82 ± 0.066; (san1∆) 2.77 ± 0.058; (ubr1∆) 3.02 ± 0.064.

Consider EALSEKPTREPTPSVKT [RPC53], for which the protein stability index was found to be 3.11 ± 0.099 (doa10∆), 3.07 ± 0.085 (pdr5∆), 3.2 ± 0.063 (san1∆) and 3.25 ± 0.089 (ubr1∆).

LEPDYQAPFSTSTKDKN [MED1]: the protein stability index runs as follows: (doa10∆) 2.84 ± 0.075; (pdr5∆) 3 ± 0.08; (san1∆) 2.81 ± 0.084; (ubr1∆) 3.08 ± 0.074.

Turning to VTTFVFTGQGSQEQGMG [FAS1], the protein stability index runs as follows: (doa10∆) 3.46 ± 0.15; (pdr5∆) 3.49 ± 0.13; (san1∆) 3.48 ± 0.14; (ubr1∆) 3.68 ± 0.18.

As to FRETTHSKRELDSGDDQ [BRR2], the protein stability index was 3.31 ± 0.12 (doa10∆), 3.02 ± 0.12 (pdr5∆), 2.51 ± 0.088 (san1∆) and 2.78 ± 0.16 (ubr1∆).

On to DDKLAYIRVNHADKDTF [POP8], for which the protein stability index is, setting by setting: (doa10∆) 2.9 ± 0.059; (pdr5∆) 2.58 ± 0.059; (san1∆) 2.72 ± 0.063; (ubr1∆) 2.62 ± 0.049.

Turning to FRSYMDQEKKYGMSITE [RPB2], the protein stability index runs as follows: (doa10∆) 1.69 ± 0.054; (pdr5∆) 2.43 ± 0.063; (san1∆) 2.89 ± 0.065; (ubr1∆) 2.75 ± 0.032.

As to GSAEFNVKYRAVVFKPF [RPB7], the protein stability index by setting is: (doa10∆) 2.81 ± 0.14; (pdr5∆) 1.85 ± 0.11; (san1∆) 2.46 ± 0.1; (ubr1∆) 2.85 ± 0.17.

Regarding GRPRGRPKKVKLEGSEN [SNF2], the protein stability index came out at 3.41 ± 0.19 (doa10∆), 3.21 ± 0.21 (pdr5∆), 3.27 ± 0.098 (san1∆) and 3.65 ± 0.17 (ubr1∆).

As for IDGPKAGVPRQAINLGQ [RPL14A], the protein stability index worked out at 3.58 ± 0.14 (doa10∆), 3.29 ± 0.11 (pdr5∆), 2.69 ± 0.11 (san1∆) and 3.31 ± 0.1 (ubr1∆).

IPPLNKSLAMEHKSQVV [CSN12]: the protein stability index reads like this: (doa10∆) 1.26 ± 0.063; (pdr5∆) 1.63 ± 0.078; (san1∆) 1.49 ± 0.12; (ubr1∆) 1.35 ± 0.071.

Regarding NIIEKAMDYAISIENIV [RPN12], the protein stability index reads like this: (doa10∆) 3.15 ± 0.13; (pdr5∆) 3.29 ± 0.088; (san1∆) 2.96 ± 0.094; (ubr1∆) 3.07 ± 0.071.

In turn, TVKTSDDYVLRIFAIAF [RPS1A] displayed a protein stability index (doa10∆) of 2.534 ± 0.02, a protein stability index (pdr5∆) of 2.308 ± 0.018, a protein stability index (san1∆) of 2.453 ± 0.023 and a protein stability index (ubr1∆) of 2.55 ± 0.016.

Take GYYLSLGSGSLAAMAVL [PUP1]: where the note is “pdr5∆”, the protein stability index stood at 1.98 ± 0.29.

Consider VTVDQYVNVAISIYNML [SSN2], for which the protein stability index by setting is: (doa10∆) 1.72 ± 0.057; (pdr5∆) 1.88 ± 0.062; (san1∆) 1.52 ± 0.12; (ubr1∆) 1.44 ± 0.052.

For the sequence NLYTPKAEMPPEHLRKI [PRP8], the protein stability index runs as follows: (doa10∆) 2.53 ± 0.072; (pdr5∆) 2.38 ± 0.062; (san1∆) 2.78 ± 0.073; (ubr1∆) 2.12 ± 0.053.

Sequence FNGADIRNCATEAGFFA [RPT4] had a protein stability index (doa10∆) of 3.32 ± 0.065, a protein stability index (pdr5∆) of 3.38 ± 0.079, a protein stability index (san1∆) of 3.3 ± 0.057 and a protein stability index (ubr1∆) of 3.22 ± 0.048.

In the case of VKDFTSLGFNEVFSRPE [RPO21], the protein stability index runs as follows: (pdr5∆) 2.56 ± 0.27; (san1∆) 2.96 ± 0.27; (ubr1∆) 2.9 ± 0.19.
